Experimental data reported in patent publication US20230357348A1 (AstraZeneca / MedImmune, published 2023).
Values belong to the binder of their own block, whether it stands above or below them. Starred links: 1 amine or outer side, 2 acyl side, 3 side chain; linkers in the order of their positions; H or OH if unused. Non-standard residues stand in square brackets, D forms with d. Groups on a side chain read outwards from the residue. No end group written: not given here. *: point of attachment. C20 diacid = O=C(O)CCCCCCCCCCCCCCCCCCC(=O)*; C18 diacid = O=C(O)CCCCCCCCCCCCCCCCC(=O)*; γGlu = O=C(O)[C@H](CCC(=O)[*:2])N[*:1]; αMeF = C[C@](N)(Cc1ccccc1)C(=O)O; AEEA = NCCOCCOCC(=O)O; Aib = CC(C)(N)C(=O)O

How the values were obtained:
[1] = molecular target: human GLP-1 receptor (hGLP-1R) (human, UniProt P43220 24-463); assay: cell-based or functional assay
[2] = molecular target: human glucagon receptor (hGCGR) (human, UniProt P47871 26-477); assay: cell-based or functional assay
Chain of human glucagon receptor (hGCGR) (P47871 26-477): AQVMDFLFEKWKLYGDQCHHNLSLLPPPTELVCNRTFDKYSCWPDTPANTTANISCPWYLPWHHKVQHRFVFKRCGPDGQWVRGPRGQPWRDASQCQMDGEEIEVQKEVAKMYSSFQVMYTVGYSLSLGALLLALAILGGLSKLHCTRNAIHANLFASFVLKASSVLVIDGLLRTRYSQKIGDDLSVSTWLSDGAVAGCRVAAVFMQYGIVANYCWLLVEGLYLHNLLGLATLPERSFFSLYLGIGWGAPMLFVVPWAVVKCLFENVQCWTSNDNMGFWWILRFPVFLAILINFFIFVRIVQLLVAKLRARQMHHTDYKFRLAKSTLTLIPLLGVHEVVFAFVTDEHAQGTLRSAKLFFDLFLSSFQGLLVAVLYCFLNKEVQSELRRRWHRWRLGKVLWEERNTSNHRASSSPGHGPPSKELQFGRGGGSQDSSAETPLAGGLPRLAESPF

B3: Peptide 500 (peptide)
peptide: H[Aib]QGTFTSDVSK[αMeF]LDTK([AEEA-AEEA-γGlu-C20 diacid])RAQDFVQWLLR[Aib]A-OH
modifications: N-terminus assumed
SMILES: CC(C)C[C@H](NC(=O)[C@H](Cc1c[nH]c2ccccc12)NC(=O)[C@H](CCC(N)=O)NC(=O)[C@@H](NC(=O)[C@H](Cc1ccccc1)NC(=O)[C@H](CC(=O)O)NC(=O)[C@H](CCC(N)=O)NC(=O)[C@H](C)NC(=O)[C@H](CCCNC(=N)N)NC(=O)[C@H](CCCCNC(=O)COCCOCCNC(=O)COCCOCCNC(=O)CC[C@H](NC(=O)CCCCCCCCCCCCCCCCCCC(=O)O)C(=O)O)NC(=O)[C@@H](NC(=O)[C@H](CC(=O)O)NC(=O)[C@H](CC(C)C)NC(=O)[C@](C)(Cc1ccccc1)NC(=O)[C@H](CCCCN)NC(=O)[C@H](CO)NC(=O)[C@@H](NC(=O)[C@H](CC(=O)O)NC(=O)[C@H](CO)NC(=O)[C@@H](NC(=O)[C@H](Cc1ccccc1)NC(=O)[C@@H](NC(=O)CNC(=O)[C@H](CCC(N)=O)NC(=O)C(C)(C)NC(=O)[C@@H](N)Cc1c[nH]cn1)[C@@H](C)O)[C@@H](C)O)C(C)C)[C@@H](C)O)C(C)C)C(=O)N[C@@H](CC(C)C)C(=O)N[C@@H](CCCNC(=N)N)C(=O)NC(C)(C)C(=O)N[C@@H](C)C(=O)O
hGLP-1R EC50 (pM) [1]: 102 pM
hGluc-R EC50 (pM) [2]: 101 pM

B5: Peptide 502 (peptide)
peptide: H[Aib]QGTFTSDVSK[αMeF]LDTK([AEEA-AEEA-γGlu-C20 diacid])RARDFVQWLLR[Aib]A-OH
modifications: N-terminus assumed
SMILES: CC(C)C[C@H](NC(=O)[C@H](Cc1c[nH]c2ccccc12)NC(=O)[C@H](CCC(N)=O)NC(=O)[C@@H](NC(=O)[C@H](Cc1ccccc1)NC(=O)[C@H](CC(=O)O)NC(=O)[C@H](CCCNC(=N)N)NC(=O)[C@H](C)NC(=O)[C@H](CCCNC(=N)N)NC(=O)[C@H](CCCCNC(=O)COCCOCCNC(=O)COCCOCCNC(=O)CC[C@H](NC(=O)CCCCCCCCCCCCCCCCCCC(=O)O)C(=O)O)NC(=O)[C@@H](NC(=O)[C@H](CC(=O)O)NC(=O)[C@H](CC(C)C)NC(=O)[C@](C)(Cc1ccccc1)NC(=O)[C@H](CCCCN)NC(=O)[C@H](CO)NC(=O)[C@@H](NC(=O)[C@H](CC(=O)O)NC(=O)[C@H](CO)NC(=O)[C@@H](NC(=O)[C@H](Cc1ccccc1)NC(=O)[C@@H](NC(=O)CNC(=O)[C@H](CCC(N)=O)NC(=O)C(C)(C)NC(=O)[C@@H](N)Cc1c[nH]cn1)[C@@H](C)O)[C@@H](C)O)C(C)C)[C@@H](C)O)C(C)C)C(=O)N[C@@H](CC(C)C)C(=O)N[C@@H](CCCNC(=N)N)C(=O)NC(C)(C)C(=O)N[C@@H](C)C(=O)O
hGLP-1R EC50 (pM) [1]: 82.1 pM
hGluc-R EC50 (pM) [2]: 175 pM

B7: Peptide 503 (peptide)
peptide: H[Aib]QGTFTSDVSK[αMeF]LDTK([AEEA-AEEA-γGlu-C20 diacid])RAQDFVRWLLE[Aib]K-OH
hGLP-1R EC50 (pM) [1]: 81.2 pM
hGluc-R EC50 (pM) [2]: 84.9 pM

B8: Peptide 501 (peptide)
peptide: H[Aib]QGTFTSDVSK[αMeF]LDTK([AEEA-AEEA-γGlu-C18 diacid])RARDFVQWLLR[Aib]A-OH
modifications: N-terminus assumed
SMILES: CC(C)C[C@H](NC(=O)[C@H](Cc1c[nH]c2ccccc12)NC(=O)[C@H](CCC(N)=O)NC(=O)[C@@H](NC(=O)[C@H](Cc1ccccc1)NC(=O)[C@H](CC(=O)O)NC(=O)[C@H](CCCNC(=N)N)NC(=O)[C@H](C)NC(=O)[C@H](CCCNC(=N)N)NC(=O)[C@H](CCCCNC(=O)COCCOCCNC(=O)COCCOCCNC(=O)CC[C@H](NC(=O)CCCCCCCCCCCCCCCCC(=O)O)C(=O)O)NC(=O)[C@@H](NC(=O)[C@H](CC(=O)O)NC(=O)[C@H](CC(C)C)NC(=O)[C@](C)(Cc1ccccc1)NC(=O)[C@H](CCCCN)NC(=O)[C@H](CO)NC(=O)[C@@H](NC(=O)[C@H](CC(=O)O)NC(=O)[C@H](CO)NC(=O)[C@@H](NC(=O)[C@H](Cc1ccccc1)NC(=O)[C@@H](NC(=O)CNC(=O)[C@H](CCC(N)=O)NC(=O)C(C)(C)NC(=O)[C@@H](N)Cc1c[nH]cn1)[C@@H](C)O)[C@@H](C)O)C(C)C)[C@@H](C)O)C(C)C)C(=O)N[C@@H](CC(C)C)C(=O)N[C@@H](CCCNC(=N)N)C(=O)NC(C)(C)C(=O)N[C@@H](C)C(=O)O
hGLP-1R EC50 (pM) [1]: 26.5 pM
hGluc-R EC50 (pM) [2]: 75.6 pM

B9: Peptide 499 (peptide)
peptide: H[Aib]QGTFTSDVSK[αMeF]LDTK([AEEA-AEEA-γGlu-C18 diacid])RAQDFVQWLLR[Aib]A-OH
modifications: N-terminus assumed
SMILES: CC(C)C[C@H](NC(=O)[C@H](Cc1c[nH]c2ccccc12)NC(=O)[C@H](CCC(N)=O)NC(=O)[C@@H](NC(=O)[C@H](Cc1ccccc1)NC(=O)[C@H](CC(=O)O)NC(=O)[C@H](CCC(N)=O)NC(=O)[C@H](C)NC(=O)[C@H](CCCNC(=N)N)NC(=O)[C@H](CCCCNC(=O)COCCOCCNC(=O)COCCOCCNC(=O)CC[C@H](NC(=O)CCCCCCCCCCCCCCCCC(=O)O)C(=O)O)NC(=O)[C@@H](NC(=O)[C@H](CC(=O)O)NC(=O)[C@H](CC(C)C)NC(=O)[C@](C)(Cc1ccccc1)NC(=O)[C@H](CCCCN)NC(=O)[C@H](CO)NC(=O)[C@@H](NC(=O)[C@H](CC(=O)O)NC(=O)[C@H](CO)NC(=O)[C@@H](NC(=O)[C@H](Cc1ccccc1)NC(=O)[C@@H](NC(=O)CNC(=O)[C@H](CCC(N)=O)NC(=O)C(C)(C)NC(=O)[C@@H](N)Cc1c[nH]cn1)[C@@H](C)O)[C@@H](C)O)C(C)C)[C@@H](C)O)C(C)C)C(=O)N[C@@H](CC(C)C)C(=O)N[C@@H](CCCNC(=N)N)C(=O)NC(C)(C)C(=O)N[C@@H](C)C(=O)O
hGLP-1R EC50 (pM) [1]: 40.6 pM
hGluc-R EC50 (pM) [2]: 78.8 pM

Continued, values first:

hGLP-1R EC50 (pM) [1]: 52.9 pM
hGluc-R EC50 (pM) [2]: 86.6 pM
B1: Peptide 507 (peptide)
peptide: H[Aib]QGTFTSDVSK[αMeF]LDTK([AEEA-AEEA-γGlu-C20 diacid])RARDFVAWLLE[Aib]G-NH2

hGLP-1R EC50 (pM) [1]: 42.1 pM
hGluc-R EC50 (pM) [2]: 191 pM
B2: Peptide 505 (peptide)
peptide: H[Aib]QGTFTSDVSK[αMeF]LDTK([AEEA-AEEA-γGlu-C20 diacid])RAQDFVQWLLE[Aib]K-NH2
modifications: N-terminus assumed
SMILES: CC(C)C[C@H](NC(=O)[C@H](Cc1c[nH]c2ccccc12)NC(=O)[C@H](CCC(N)=O)NC(=O)[C@@H](NC(=O)[C@H](Cc1ccccc1)NC(=O)[C@H](CC(=O)O)NC(=O)[C@H](CCC(N)=O)NC(=O)[C@H](C)NC(=O)[C@H](CCCNC(=N)N)NC(=O)[C@H](CCCCNC(=O)COCCOCCNC(=O)COCCOCCNC(=O)CC[C@H](NC(=O)CCCCCCCCCCCCCCCCCCC(=O)O)C(=O)O)NC(=O)[C@@H](NC(=O)[C@H](CC(=O)O)NC(=O)[C@H](CC(C)C)NC(=O)[C@](C)(Cc1ccccc1)NC(=O)[C@H](CCCCN)NC(=O)[C@H](CO)NC(=O)[C@@H](NC(=O)[C@H](CC(=O)O)NC(=O)[C@H](CO)NC(=O)[C@@H](NC(=O)[C@H](Cc1ccccc1)NC(=O)[C@@H](NC(=O)CNC(=O)[C@H](CCC(N)=O)NC(=O)C(C)(C)NC(=O)[C@@H](N)Cc1c[nH]cn1)[C@@H](C)O)[C@@H](C)O)C(C)C)[C@@H](C)O)C(C)C)C(=O)N[C@@H](CC(C)C)C(=O)N[C@@H](CCC(=O)O)C(=O)NC(C)(C)C(=O)N[C@@H](CCCCN)C(N)=O

hGLP-1R EC50 (pM) [1]: 124 pM
hGluc-R EC50 (pM) [2]: 551 pM
B4: Peptide 504 (peptide)
peptide: H[Aib]QGTFTSDVSK[αMeF]LESK([AEEA-AEEA-γGlu-C20 diacid])RAQDFVRWLLE[Aib]K-OH
modifications: N-terminus assumed
SMILES: CC(C)C[C@H](NC(=O)[C@H](Cc1c[nH]c2ccccc12)NC(=O)[C@H](CCCNC(=N)N)NC(=O)[C@@H](NC(=O)[C@H](Cc1ccccc1)NC(=O)[C@H](CC(=O)O)NC(=O)[C@H](CCC(N)=O)NC(=O)[C@H](C)NC(=O)[C@H](CCCNC(=N)N)NC(=O)[C@H](CCCCNC(=O)COCCOCCNC(=O)COCCOCCNC(=O)CC[C@H](NC(=O)CCCCCCCCCCCCCCCCCCC(=O)O)C(=O)O)NC(=O)[C@H](CO)NC(=O)[C@H](CCC(=O)O)NC(=O)[C@H](CC(C)C)NC(=O)[C@](C)(Cc1ccccc1)NC(=O)[C@H](CCCCN)NC(=O)[C@H](CO)NC(=O)[C@@H](NC(=O)[C@H](CC(=O)O)NC(=O)[C@H](CO)NC(=O)[C@@H](NC(=O)[C@H](Cc1ccccc1)NC(=O)[C@@H](NC(=O)CNC(=O)[C@H](CCC(N)=O)NC(=O)C(C)(C)NC(=O)[C@@H](N)Cc1c[nH]cn1)[C@@H](C)O)[C@@H](C)O)C(C)C)C(C)C)C(=O)N[C@@H](CC(C)C)C(=O)N[C@@H](CCC(=O)O)C(=O)NC(C)(C)C(=O)N[C@@H](CCCCN)C(=O)O

hGLP-1R EC50 (pM) [1]: 162 pM
hGluc-R EC50 (pM) [2]: 149 pM
B6: Peptide 506 (peptide)
peptide: H[Aib]QGTFTSDVSK[αMeF]LDTK([AEEA-AEEA-γGlu-C20 diacid])RARDFVAWLLE[Aib]G-OH
modifications: N-terminus assumed
SMILES: CC(C)C[C@H](NC(=O)[C@H](Cc1c[nH]c2ccccc12)NC(=O)[C@H](C)NC(=O)[C@@H](NC(=O)[C@H](Cc1ccccc1)NC(=O)[C@H](CC(=O)O)NC(=O)[C@H](CCCNC(=N)N)NC(=O)[C@H](C)NC(=O)[C@H](CCCNC(=N)N)NC(=O)[C@H](CCCCNC(=O)COCCOCCNC(=O)COCCOCCNC(=O)CC[C@H](NC(=O)CCCCCCCCCCCCCCCCCCC(=O)O)C(=O)O)NC(=O)[C@@H](NC(=O)[C@H](CC(=O)O)NC(=O)[C@H](CC(C)C)NC(=O)[C@](C)(Cc1ccccc1)NC(=O)[C@H](CCCCN)NC(=O)[C@H](CO)NC(=O)[C@@H](NC(=O)[C@H](CC(=O)O)NC(=O)[C@H](CO)NC(=O)[C@@H](NC(=O)[C@H](Cc1ccccc1)NC(=O)[C@@H](NC(=O)CNC(=O)[C@H](CCC(N)=O)NC(=O)C(C)(C)NC(=O)[C@@H](N)Cc1c[nH]cn1)[C@@H](C)O)[C@@H](C)O)C(C)C)[C@@H](C)O)C(C)C)C(=O)N[C@@H](CC(C)C)C(=O)N[C@@H](CCC(=O)O)C(=O)NC(C)(C)C(=O)NCC(=O)O
